Measured values as given in patent US20230126400A1 (Alector, published 2023).

Tests used:
[1] = target: T1, human MS4A6A ECL1 peptide (amino acid residues 68-85) (human); test: array SPR
T1 peptide: SASFSPNFTQVTSTLLNS

[2] = target: T2, human MS4A6A ECL2 peptide (amino acid residues 138-185) (human); test: array SPR
T2 peptide: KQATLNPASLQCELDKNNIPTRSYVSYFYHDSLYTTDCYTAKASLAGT

[3] = target: T3, BSA-conjugated human MS4A4A ECL2 peptide (amino acid residues 159-179) (human, conjugated to BSA (site not stated)); test: ELISA, supernatant
T3 construct: also called MS4A4A-ECL2 BSA conjugated peptide; BSA-MS4A4A-ELC2 peptide
T3 peptide: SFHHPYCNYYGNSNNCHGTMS
Procedure: (§1) Briefly, 96-well polystyrene plates were coated with 1-10 μg/ml of synthetic free or BSA-conjugated peptides in coating buffer (0.05M carbonate buffer, pH9.6, Millipore Sigma C3041) overnight at 4° C. Coated plates were then blocked with ELISA diluent (PBS+0.5% BSA+0.05% Tween20) for 1-hour, washed 3×300 μL in PBST (PBS+0.05% Tween20, Thermo Cat#28352), and then the antibodies were added to the plate (50 μl/ml). After 30 mins incubation (room temperature, with shaking), the plates were washed 3×300 μL in PBST. […] After a final set of washes (3×300 μL in PBST), 50 μL of TMB substrate (BioFx TMBW-1000-01) was added and the reaction was then quenched after 5-10 mins with 50 μL of stop solution (BioFx BSTP-1000-01). The quenched reaction wells were detected for absorbance at 650 nm with a BioTek Synergy Microplate Reader using GENS 2.04 software.

human MS4A4A [4] = target: T4, human MS4A4A (human, UniProt Q96JQ5 1-239); test: FACS, HEK293, supernatant
cynomolgus (cyno) MS4A4A [5] = target: T5, cynomolgus (cyno) MS4A4A (cynomolgus); test: FACS, HEK293, supernatant
T5 construct: also called cy4A; Cyno 4A

cynomolgus (cyno) MS4A4A [6] = target: T5, cynomolgus (cyno) MS4A4A; test: flow cytometry (anti-mouse IgG Fc-APC), hybridoma supernatant on 300.19 cells transfected with cyno MS4A4A
Procedure: (§2) Flow cytometry was performed as follows. Briefly, transiently-transfected cells were labeled with LIVE/DEAD Fixable Aqua Dead Cell Stain Kit (ThermoFisher Scientific Cat#L34957) on ice for 30 minutes. […] 2×10⁵ cells were aliquoted per well in 96-well U-bottom plates and incubated with 50 μl of culture supernatant on ice for 30 minutes. […] Following this secondary incubation, the cells were again washed twice with ice-cold FACS buffer and resuspended in a final volume of 200 μl of FACS buffer. Analysis was performed on a FACS Canto system (BD Biosciences), with gates drawn to exclude dead (Aqua-positive) cells.

[7] = target: T6, human MS4A4A ECL1 peptide (amino acid residues 86-98) (human); test: ELISA, hybridoma supernatant
T6 construct: synthetic peptide
T6 peptide: CMASNTYGSNPIS
Procedure, shortened: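 Plates coated overnight at 4° C with 1-10 μg/ml free or BSA-conjugated peptide in carbonate buffer pH 9.6, blocked with PBS/0.5% BSA/0.05% Tween20. Antibodies (hybridoma supernatants) bound 30 min at room temperature with shaking; TMB development 5-10 min, stopped, absorbance read at 650 nm.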

human MS4A4A [8] = target: T4, human MS4A4A; test: FACS, U937 cells, supernatant; U937 cells overexpressing h4A
Procedure: as §2, with “Positive clones identified in Example 22 above were expanded and then rescreened for specificity against U937, K562, and/or 300.19 cells stably overexpressing human MS4A4A or cyno MS4A4A and parental U937, K562, and/or 300.19 cells. These experiments were” for “Flow cytometry was”, “using supernatants from hybridoma clones which had undergone further expansion after initial selection.” for “as follows.”, “stably transfected” for “transiently-transfected”
(§3) The APC ratio was calculated for each antibody as follows. […] For cell lines overexpressing human MS4A4A (h4A) or cyno MS4A4A (cy4A), the ration was calculated by comparing the binding measured to the binding observed on the corresponding parental cell lines.

[9] = target: T6, human MS4A4A ECL1 peptide (amino acid …); test: peptide ELISA
Procedure: as §1, with “[…]” for “1-10 μg/ml”, “Cat#C3041)” for “C3041)”, “μl/well).” for “μl/ml).”, “Cat#TMBW-1000-01)” for “TMBW-1000-01)”, “Cat#BSTP-1000-01).” for “BSTP-1000-01).”, “650nm” for “650 nm”

human MS4A4A [10] = target: T4, human MS4A4A; test: FACS, K562 cells, supernatant; K562 cells overexpressing h4A
Procedure: as §2, with “Positive clones identified in Example 22 above were expanded and then rescreened for specificity against U937, K562, and/or 300.19 cells stably overexpressing human MS4A4A or cyno MS4A4A and parental U937, K562, and/or 300.19 cells. These experiments were” for “Flow cytometry was”, “using supernatants from hybridoma clones which had undergone further expansion after initial selection.” for “as follows.”, “stably transfected” for “transiently-transfected”
as §3

[11] = target: T7, human MS4A4A ECL2 peptide (amino acid residues 159-179), free (human); test: peptide ELISA, supernatant
T7 construct: synthetic peptide; also called huMS4A4A-ELC2 free-peptide
T7 peptide: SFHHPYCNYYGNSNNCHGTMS

cynomolgus (cyno) MS4A4A [12] = target: T5, cynomolgus (cyno) MS4A4A; test: FACS, stably transfected cells
human MS4A4A [13] = target: T4, human MS4A4A; test: FACS, U937 cells, supernatant
Procedure: as §2, with “Positive clones identified in Example 22 above were expanded and then rescreened for specificity against U937, K562, and/or 300.19 cells stably overexpressing human MS4A4A or cyno MS4A4A and parental U937, K562, and/or 300.19 cells. These experiments were” for “Flow cytometry was”, “using supernatants from hybridoma clones which had undergone further expansion after initial selection.” for “as follows.”, “stably transfected” for “transiently-transfected”
as §3

[14] = target: T7, human MS4A4A ECL2 peptide (amino acid …); test: peptide ELISA
Procedure: as §1, with “[…]” for “1-10 μg/ml”, “Cat#C3041)” for “C3041)”, “μl/well).” for “μl/ml).”, “Cat#TMBW-1000-01)” for “TMBW-1000-01)”, “Cat#BSTP-1000-01).” for “BSTP-1000-01).”, “650nm” for “650 nm”

human MS4A4A [15] = target: T4, human MS4A4A; test: FACS, 300.19 cells, supernatant
Procedure: as §2, with “Positive clones identified in Example 22 above were expanded and then rescreened for specificity against U937, K562, and/or 300.19 cells stably overexpressing human MS4A4A or cyno MS4A4A and parental U937, K562, and/or 300.19 cells. These experiments were” for “Flow cytometry was”, “using supernatants from hybridoma clones which had undergone further expansion after initial selection.” for “as follows.”, “stably transfected” for “transiently-transfected”
as §3

cynomolgus (cyno) MS4A4A [16] = target: T5, cynomolgus (cyno) MS4A4A; test: FACS, 300.19 cells, supernatant
Procedure: as §2, with “Positive clones identified in Example 22 above were expanded and then rescreened for specificity against U937, K562, and/or 300.19 cells stably overexpressing human MS4A4A or cyno MS4A4A and parental U937, K562, and/or 300.19 cells. These experiments were” for “Flow cytometry was”, “using supernatants from hybridoma clones which had undergone further expansion after initial selection.” for “as follows.”, “stably transfected” for “transiently-transfected”
as §3

human MS4A4A [17] = target: T4, human MS4A4A; test: FACS, K562 cells, supernatant
Procedure: as §2, with “Positive clones identified in Example 22 above were expanded and then rescreened for specificity against U937, K562, and/or 300.19 cells stably overexpressing human MS4A4A or cyno MS4A4A and parental U937, K562, and/or 300.19 cells. These experiments were” for “Flow cytometry was”, “using supernatants from hybridoma clones which had undergone further expansion after initial selection.” for “as follows.”, “stably transfected” for “transiently-transfected”
as §3

human MS4A4A [18] = target: T4, human MS4A4A; test: functional affinity, FACS titration on stably transfected 300.19 cells
Procedure: (§4) Determination of functional affinity/KD was carried out as follows. A constant number of 300.19 cells stably transfected with constructs expressing MS4A4A were blocked against non-specific binding, and then incubated with anti-MS4A4A antibodies at various concentrations predetermined to span from saturation-binding to no antibodies present for three hours on ice so the reaction is allowed to achieve near equilibrium. The cells were then washed and incubated with fluorophore-conjugated secondary antibodies, washed again, and signal determined by FACS Cantos (Becton Dickinson, Franklin Lake, N.J.). To determine functional/KD, the four-parameter dose response curve with variable slope was fitted onto the data by Prism (Graphpad, San Diego, Calif.), based on the multiple independent binding site model described by Drake and Klakamp, supra.

cynomolgus (cyno) MS4A4A [19] = target: T5, cynomolgus (cyno) MS4A4A; test: as above
Procedure: as §4

[20] = target: T6, human MS4A4A ECL1 peptide (amino acid …); test: array SPR
[21] = target: T3, BSA-conjugated human MS4A4A ECL2 …; test: ELISA, hybridoma supernatant

B1: anti-MS4A4A antibody 4A-14 (antibody, V domains shown)
VH: EVKLEESGGGLVQPGGSMKLSCAASGFTFSDAWLDWVRQSPEKGLEWVAEIRSKANDHATYYAESVKGRFTISRDDSKSRFYLQMNSLRAEDTGIYYCSVDYYGFFWGQGTLVTVSA
VL: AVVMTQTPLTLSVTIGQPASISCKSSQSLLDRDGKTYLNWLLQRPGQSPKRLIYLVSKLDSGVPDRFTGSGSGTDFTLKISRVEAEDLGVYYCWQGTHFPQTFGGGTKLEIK
notes: murine hybridoma antibody
- binding result [1]: no binding (tested: 2000 nM)
- binding result [2]: no binding (tested: 2000 nM)
- binding result [3]: binds
- Human 4A:parental cell ratio (human MS4A4A [4]): 4.2 ratio
- Cyno 4A:parental cell ratio (cynomolgus (cyno) MS4A4A [5]): 0.647 ratio
- binding result (cynomolgus (cyno) MS4A4A [6]): no binding
- binding result [7]: no binding

B2: anti-MS4A4A antibody 4A-204 (antibody, V domains shown)
VH: DVKLVESGGGLAKLGGSLKLSCAASGFTFSSFYMSWVRQTPEKRLELVAAINSNGGSTYYPDSVKGRFTISRDNVKNTLYLQMSSLKSEDTAMYYCARHLYYGLYYAMDYWGQGTSVTVSS
VL: ENVLTQSPAIMSASPGEKVTMTCSASSSVSFMYWYQEKSSTSPKLWIYDTSKLASGVPGRFSGSGSGNSYSLTISSMGAEDVATYYCFQGSGFPLTFGSGTKLEIK
notes: murine hybridoma antibody
- fold increase in MFI (human MS4A4A [8]): > 2 fold
- binding result [9]: no binding
- fold increase in MFI (human MS4A4A [10]): > 2 fold
- binding result [11]: no binding

B3: anti-MS4A4A antibody 4A-206 (murine) (antibody, V domains shown)
VH: EVKLVESGGGLVKPGGSLKLSCAASGFTFSSYTMSWVRQTPEKRLEWVASLSSGGSTYYPDSVKGRFTISRDNARNILYLQMSSLRSEDTAMYYCAKDYYVSSYRWYFDVWGAGTTVTVSS
VL: DIQMTQITSSLSASLGDRVTISCRASQDISNYLNWYQQKPDGTVKLLIYYTSNLHSGVPSRFSGSGSGTDYSLTISNLEQEDIATYFCQQGKSFPWTFGGGTKLEIK
notes: murine hybridoma antibody
- fold increase in MFI (human MS4A4A [8]): > 2 fold
- binding result [9]: no binding
- fold increase in MFI (human MS4A4A [10]): > 2 fold
- binding result (cynomolgus (cyno) MS4A4A [12]): binds
- binding result [11]: no binding

B4: anti-MS4A4A antibody 4A-213 (murine) (antibody, V domains shown)
VH: QVQLKESGPGLVAPSQSLSITCTVSGFSLTSYGVHWVRQPPGKGLEWLGVIWVGGSTNYNSALMSRLSISKDNSKSQVFLKMNSLQTDDTAMYYCARAVYYYGSSYYFDYWGQGTTVTVSS
VL: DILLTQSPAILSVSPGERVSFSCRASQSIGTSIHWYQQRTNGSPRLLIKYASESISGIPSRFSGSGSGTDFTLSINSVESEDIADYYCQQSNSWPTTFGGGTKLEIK
notes: murine hybridoma antibody
- binding result [9]: no binding
- fold increase in MFI (human MS4A4A [10]): > 2 fold
- binding result (cynomolgus (cyno) MS4A4A [12]): binds
- binding result [11]: no binding

B5: anti-MS4A4A antibody 4A-214 (antibody, V domains shown)
VH: EVKLEESGGGLVQPGRSMKLSCVASGFTFSNYWMNWVRQSPEKGLEWVAEIRLKSNNYATHYAESVKGRFTISRDDSKSSVYLQMNNLRAEDTGIYYCSSMIIVDYWGQGTTVTVSS
VL: DIVLTQSPASLTVSLGQRATISCRASQSVSSSTYSYLHWYQQRPGQPPKLLIKYASNLESGVPARFSGSGSGTVFTLNIHPVEEEDTATYYCQHSWEIPLTFGAGTKLEMK
notes: murine hybridoma antibody
- fold increase in MFI (human MS4A4A [13]): > 2 fold
- binding result [9]: no binding
- binding result [14]: binds
- fold increase in MFI (human MS4A4A [15]): > 2 fold
- fold increase in MFI (cynomolgus (cyno) MS4A4A [16]): > 2 fold
- fold increase in MFI (human MS4A4A [17]): > 2 fold

B6: anti-MS4A4A antibody 4A-220 (antibody, V domains shown)
VH: EVQLQQSGPDLVKPGASVKISCKASGYSFNGYFMNWVMQSHGESLEWIGRINPYNGDTLYNQKFKGKATLTVDKSSSTGHMELRSLASEDSAVYYCARVKGYDYDGAMDYWGQGTSVTVSS
VL: DIVMTQSPDSLAVSLGERATINCRSSQSLLQSGNQKSSLAWYQQKPGQPPKLLIFWARTRQSGVPDRFSGSGSGTDFTLTISSVQAEDVAVYYCQQYSDTPFTFGQGTKLEIK
notes: murine hybridoma antibody
- fold increase in MFI (human MS4A4A [13]): > 2 fold
- binding result [9]: no binding
- fold increase in MFI (human MS4A4A [15]): > 2 fold
- fold increase in MFI (human MS4A4A [17]): > 2 fold
- binding result [11]: no binding

B7: anti-MS4A4A antibody 4A-202, huIgG1 chimera (antibody, V domains shown)
VH: QVQLQQSGAELARPGASVKLSCKASGYTFTNYWMQWVKQRPGQGLEWIGATHPGHGDTRYTQKFKGKATLSADKSSSTAYMQLSNLASEDSAVYYCAREEVYYGFRSYWYFDVWGAGTTVTVSS
VL: not shown
- Kd (human MS4A4A [18]): 3.5 nM
- Kd (cynomolgus (cyno) MS4A4A [19]): 1.8 nM

B8: anti-MS4A4A antibody 4A-24 (antibody, V domains shown)
VH: EVKLEESGGGLVQPGGSMKLSCAASGFTFSDAWMDWVRQSPEKGLEWVAEIRDNADNHPTYYAESVKGRFTISRDDSKSSVYLQMNSLRAEDTGIYYCTSDYYGSHWGQGTTLTVSS
VL: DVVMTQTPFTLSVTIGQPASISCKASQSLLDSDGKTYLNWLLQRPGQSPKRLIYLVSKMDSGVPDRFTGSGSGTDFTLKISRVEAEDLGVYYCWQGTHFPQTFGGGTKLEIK
notes: murine hybridoma antibody
- binding result [20]: no binding (tested: 2000 nM)
- binding result [1]: no binding (tested: 2000 nM)
- binding result [2]: no binding (tested: 2000 nM)
- binding result [21]: no binding
